AmyQ secretion efficiency data for 82 sequences are collected here from the supplement of paper PMC9942255.

“And” between values parts separate entries of the source, which are not always exact repeats. Equal values may be shown once.

This series has as its system Bacillus subtilis DB104 (SP-AmyQ fusion secretion). Put plainly: AmyQ secretion efficiency, weighted average sort bin (1 = best secretion, 10 = worst) (bin number (weighted average, 1-10)); higher = lower secretion efficiency. The essentials:
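In this assay, the secretion score is defined as the average bin number weighted by read frequency, normalised to beads per bin, with low-abundance sequences not counted. B. subtilis DB104 cells expressing mature AmyQ behind designed signal peptides (amyE-integrated) were enclosed with fluorescein-starch in ~65 nL alginate beads at about 0.3 cells per bead. Beads grew about 13 h at room temperature, were stained with nile red, and occupied beads went into 10 equally populated green/red fluorescence ratio bins by large-particle flow cytometry, whose amplicons were Illumina-sequenced.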

Take MPYLKRVRRRRRRGLFMSLFAVTATASAQTG: the AmyQ secretion efficiency came out at 6.28.
Under MPYLKRVRRRRVTGLFMSLFAVTATASAQTG stands 2.37.
The result for MPYLMMVLLLLVTGLFMSLFAVTATASAQTG reads 1.47; that for MPYRKRRRVLLLLVTGLFMSLFAVTATASAQTG, 1.13.
Consider MQKKWRRRLIQFAVMLSVLSTFTYSASAVGV, for which the AmyQ secretion efficiency was determined as 3.56.
Sequence MQLGKKLSVAVAASFMSLSISLPGVQAAEG gave an AmyQ secretion efficiency of 2.25.
For MQNRLFRVCFLAALIMAFTLPNSVYAQKP, the AmyQ secretion efficiency was 1.12.
Under MQRKRLLTIYIMLLGLIAWFPGAAQAEEK stands 1.93.
Sequence MQRRQRYRQRVIVIAALITFNVRNASPG returned an AmyQ secretion efficiency of 8.93.
MRFTKFMSIVVGFLSVLGLAAVFPLTAQAEKA had an AmyQ secretion efficiency of 2.72.
MRFTKFTFIMITVVGFLSVLGLAAVFPLTAQAEKA gave an AmyQ secretion efficiency of 1.81.
MRFTKKKTFLSVLGLAAVFPLTAQAEKA registered an AmyQ secretion efficiency of 3.64.
Under MRFTKNVVGFLSVLGLAAVFPLTAQAEKA stands 2.41; under MRFTKTRGQRQVLGLAAVFPLTAQAEKA, 7.51.
On to MRFTKTVGFLSVLGLAAVFPLTAQAEKA, for which the AmyQ secretion efficiency was determined as 2.59.
MRFTKVRRKKSVLGLAAVFPLTAQAEKA returned an AmyQ secretion efficiency of 7.85.
MRFTKVRRRRKKLGLAAVFPLTAQAEKA registered an AmyQ secretion efficiency of 7.25.
The sequence MRFTKVVGFLSVLGLAADEDLTAQAEKA displayed an AmyQ secretion efficiency of 3.78.
Under MRFTKVVGFLSVLGLAAEDEEEEAQAEKA stands 7.84.
Under MRFTKVVGFLSVLGLAAKKKLTAQAEKA stands 7.51; under MRFTKVVGFLSVLGLAAKKRKRRAQAEKA, 7.6.
The sequence MRFTKVVGFLSVLGLAASSILLLFSIVFPLTAQAEKA gave an AmyQ secretion efficiency of 2.15.
Sequence MRFTKVVGFLSVLGLAATTTFIVFPLTAQAEKA returned an AmyQ secretion efficiency of 1.5.
In turn, MRFTKVVGFLSVLGLAAVAQAEKA returned an AmyQ secretion efficiency of 5.78.
In the case of MRFTKVVGFLSVLGLAAVFPLTAQAADD, the AmyQ secretion efficiency came to 3.85.
Sequence MRFTKVVGFLSVLGLAAVFPLTAQAAKR showed an AmyQ secretion efficiency of 5.46.
MRFTKVVGFLSVLGLAAVFPLTAQAAPK displayed an AmyQ secretion efficiency of 1.91.
Sequence MRFTKVVGFLSVLGLAAVFPLTAQAEED gave an AmyQ secretion efficiency of 1.95.
MRFTKVVGFLSVLGLAAVFPLTAQARKR: the AmyQ secretion efficiency is 7.26.
With MRFTKVVGFLSVLGLAAVFPLTAQGEKA, the AmyQ secretion efficiency came to 2.12.
MRFTKVVGFLSVLGLAAVFPLTAQREKA returned an AmyQ secretion efficiency of 5.37.
MRFTKVVGFLSVLGLAAVFPLTAQTEKA displayed an AmyQ secretion efficiency of 5.69.
As to MRFTKVVGFLSVLGLAAVFPLTASSAAQAEKA, the AmyQ secretion efficiency was determined as 1.25.
In the case of MRFTKVVGFLSVLGLAAVFPLTCQAEKA, the AmyQ secretion efficiency was found to be 2.19.
Regarding MRFTKVVGFLSVLGLAAVFPLTSQAEKA, the AmyQ secretion efficiency came out at 4.09.
In turn, MRFTKVVGFLSVLGLAAVFPLTTQAEKA registered an AmyQ secretion efficiency of 4.74.
MRFTKVVGFLSVLGLAAVFPLTVQAEKA: the AmyQ secretion efficiency worked out at 3.18.
In turn, MRFTKVVGFLSVLGVFPLTAQAEKA returned an AmyQ secretion efficiency of 5.6.
Under MRGKSAKRLSLIMLIAGFLISFSFQM stands 7.38; under MRGKSAVLLSLIMLIAGFLDDDEEDSFSFQM, 8.01; under MRGKSAVLLSLIMLIAGFLDEESFSFQM, 5.97.
In the case of MRGKSAVLLSLIMLIAGFLIDFSFQM, the AmyQ secretion efficiency came out at 7.67.
For MRGKSAVLLSLIMLIAGFLIEFSFQM, the AmyQ secretion efficiency is 8.38.
Sequence MRGKSAVLLSLIMLIAGFLIHFSFQM registered an AmyQ secretion efficiency of 6.42.
In the case of MRGKSAVLLSLIMLIAGFLIISFSFQM, the AmyQ secretion efficiency was 8.29.
The sequence MRGKSAVLLSLIMLIAGFLINFSFQM had an AmyQ secretion efficiency of 6.91.
For the sequence MRGKSAVLLSLIMLIAGFLIPFSFQM, the AmyQ secretion efficiency amounted to 7.72.
Under MRGKSAVLLSLIMLIAGFLISFDFQM stands 6.6; under MRGKSAVLLSLIMLIAGFLISFEFQM, 5.74.
Under MRGKSAVLLSLIMLIAGFLISFHFQM stands 7.78.
Under MRGKSAVLLSLIMLIAGFLISFLFQM stands 7.41.
Sequence MRGKSAVLLSLIMLIAGFLISFMFQM came in with an AmyQ secretion efficiency of 7.73.
The result for MRGKSAVLLSLIMLIAGFLISFNFQM reads 6.3.
The result for MRGKSAVLLSLIMLIAGFLISFPFQM reads 5.95; that for MRGKSAVLLSLIMLIAGFLISFQFQM, 7.36.
The result for MRGKSAVLLSLIMLIAGFLISFSFKK reads 6.28; that for MRGKSAVLLSLIMLIAGFLISFSFQD, 6.77.
With MRGKSAVLLSLIMLIAGFLISFSFQK, the AmyQ secretion efficiency came to 9.36.
Under MRGKSAVLLSLIMLIAGFLISFTFQM stands 6.75; under MRGKSAVLLSLIMLIAGFLISFVFQM, 6.98; under MRGKSAVLLSLIMLIAGFLISFYFQM, 7.22.
MRGKSAVLLSLIMLIAGFLITASFPTVTGPPFSFSFQM gave an AmyQ secretion efficiency of 8.88.
The result for MRGKSAVLLSLIMLIAGFLIWFSFQM reads 7.55; that for MRGKSAVLLSLIMLIAGFLIYFSFQM, 8.11.
Sequence MRGKSAVLLSLIMLIAGFLQQSFSFQM returned an AmyQ secretion efficiency of 7.38.
For the sequence MRGKSIAVLLSLIMLIAGFLISFSFQM, the AmyQ secretion efficiency was found to be 5.87.
In turn, MRGKSSTRKSLIMLIAGFLISFSFQM had an AmyQ secretion efficiency of 7.08.
The result for MRGTSVVGFLSVLGLAAVFPLTAQAEKA reads 2.91; that for MRHKIIGRYQTSSGQIIIGNMIGGGGGSEATSK, 7.7.
The result for MRHKIITFILAVVVIIIIGNMIGGGGGQEATSK reads 6.41.
In turn, MRHKIITFILAVVVIIIIGNMIGGGGGSEAEDD displayed an AmyQ secretion efficiency of 6.34.
In turn, MRHKIITFILAVVVIIIIGNMIGGGGGSEATSE registered an AmyQ secretion efficiency of 3.29.
As for MRHKIITFILAVVVIIIIGNMIGGGGGSEATSH, the AmyQ secretion efficiency came to 5.06.
In the case of MRHKIITFILAVVVIIIIGNMIGGGGGSEATSK, the AmyQ secretion efficiency was 5.87.
The sequence MRHKIITFILAVVVIIIIGNMIGGGGGSEETSK registered an AmyQ secretion efficiency of 7.2.
In turn, MRHKIITFILAVVVIIIIRKRKKRRGGSEATSK registered an AmyQ secretion efficiency of 4.98.
Under MRHKSITFILAVVVIIIIGNMIGGGGGSEATSK stands 6.79; under MRIFKKARKKRRKSFLIATVNVNTAHAAID, 6.58; under MRIFKKAVFVIMISFLIARRRKKRAHAAID, 8.88.
Sequence MRIFKKAVFVIMISFLIATVNVNTAHAAEE displayed an AmyQ secretion efficiency of 1.56.
As to MRIFKKAVFVIMISFLIATVNVNTAHAAID, the AmyQ secretion efficiency is 3.53 and 3.56 and 3.38.
MRIFKKAVFVIMISFLIATVNVNTAHAAIG yielded an AmyQ secretion efficiency of 1.03.
